Molecular target: the molecule itself
Test: SEC; Superdex S200 10/300 Increase, 20 mM Tris-HCl pH 8, 300 mM NaCl; affinity-purified (His)6 protein; peak fractions checked by 12.5 % SDS-PAGE

B1: (His)6-Pf14-3-3I (natural protein, Plasmodium falciparum, UniProt C0H4V6 1-262, looked up)
chain: MATSEELKQLRCDCTYRSKLAEQAERYDEMADAMRTLVEQCVNNDKDELTVEERNLLSVAYKNAVGARRASWRIISSVEQKEMSKANVHNKNVAATYRKKVEEELNNICQDILNLLTKKLIPNTSESESKVFYYKMKGDYYRYISEFSCDEGKKEASNCAQEAYQKATDIAENELPSTHPIRLGLALNYSVFFYEILNQPHQACEMAKRAFDDAITEFDNVSEDSYKDSTLIMQLLRDNLTLWTSDLQGDQTEEKSKDEGLE
notes: 14-3-3I protein, Plasmodium falciparum, PlasmoDB MAL8P1.69/PF3D7_0818200; amplified from a P. falciparum cDNA library with primers from the start to the stop codon, cloned into pRSFDuet; recombinant protein 30 kDa; source: E. coli BL21 Codon Plus, purified (Ni-NTA-agarose)
stoichiometry N: 2
